Reference: the Immune Epitope Database (IEDB)

What was measured:
Experiment in all cases: IEDB peptide-MHC binding, purified MHC/competitive/radioactivity; filed as Kd, often an IC50 or EC50 that approximates it; ≥ and ≤ were set here for values at or beyond the usual limits of such assays
HLA-A*33:01 = target: HLA-A*33:01
HLA-A*68:01 = target: HLA-A*68:01
HLA-A*03:01 = target: HLA-A*03:01
HLA-A*31:01 = target: HLA-A*31:01
HLA-A*11:01 = target: HLA-A*11:01
[1] = source organism: Vaccinia virus WR
[2] = source organism: Dengue virus 4 Philippines/H241/1956
[3] = source organism: Dengue virus 2 Jamaica/1409/1983
[4] = source organism: Dengue virus 1 Brazil/97-11/1997
[5] = source organism: Mammarenavirus machupoense
[6] = source organism: Mammarenavirus brazilense
[7] = source organism: SARS coronavirus Tor2
[8] = source organism: Mammarenavirus lassaense
[9] = source organism: Mammarenavirus juninense

Sequence | Kd (HLA-A*33:01; [1]) | Kd (HLA-A*68:01; [1]) | Kd (HLA-A*03:01; [1]) | Kd (HLA-A*31:01; [1]) | Kd (HLA-A*11:01; [1]) | other results
LFSTSAADIK | ≥ 70000 nM | 57.8 nM | 19600 nM | ≥ 70000 nM | 4790 nM | –
IFLRKLTSR | – | – | – | – | – | Kd (HLA-A*33:01; [2]): 108 nM; Kd (HLA-A*31:01; [2]): 39 nM
YSGLTPEQK | ≥ 53000 nM | 494 nM | 18800 nM | 16200 nM | 497 nM | –
KSIENKHQRR | 9320 nM | 11200 nM | 11100 nM | 0.608 nM | 198 nM | –
ATTFVTPMLR | – | – | – | – | – | Kd (HLA-A*68:01; [3]): 16.2 nM; Kd (HLA-A*31:01; [3]): 91.1 nM; Kd (HLA-A*11:01; [3]): 95.2 nM
TVEAGRTLR | – | – | – | – | – | Kd (HLA-A*68:01; source organism: Dengue virus 2 Peru/IQT2913/1996): 13 nM
YIYSEIKQGR | 853 nM | 6.39 nM | 1650 nM | 16.5 nM | 11600 nM | –
TIANSNIIK | 10900 nM | 73.1 nM | 655 nM | 8980 nM | 36.8 nM | –
MWQLMYFHR | – | – | – | – | – | Kd (HLA-A*33:01; [4]): 1.43 nM; Kd (HLA-A*31:01; [4]): ≥ 24400 nM
LVTRKCPQK | 5110 nM | 19.3 nM | 63 nM | 1320 nM | 17.3 nM | –
FFTELENKK | ≥ 30900 nM | 3360 nM | ≥ 78000 nM | ≥ 25700 nM | 6190 nM | –
NIKPSKENR | 338 nM | 10.5 nM | 7390 nM | 545 nM | ≥ 30400 nM | –
SSVSVLMKEH | – | – | – | – | – | Kd (HLA-A*33:01; [5]): ≥ 70000 nM; Kd (HLA-A*68:01; [5]): 8860 nM; Kd (HLA-A*03:01; [5]): 17700 nM; Kd (HLA-A*31:01; [5]): 11700 nM; Kd (HLA-A*11:01; [5]): ≥ 31000 nM
GSFQEFRSNH | – | – | – | – | – | Kd (HLA-A*33:01; [6]): ≥ 45200 nM; Kd (HLA-A*68:01; [6]): ≥ 70100 nM; Kd (HLA-A*03:01; [6]): ≥ 28700 nM; Kd (HLA-A*31:01; [6]): 1520 nM; Kd (HLA-A*11:01; [6]): 7130 nM
LSCIRNASK | 784 nM | 276 nM | 484 nM | 300 nM | 500 nM | –
VMNIERQDY | 747 nM | 53.2 nM | ≥ 61100 nM | 3880 nM | 6110 nM | –

Sequence | Kd (HLA-A*33:01; [1]) | Kd (HLA-A*68:01; [1]) | Kd (HLA-A*03:01; [1]) | Kd (HLA-A*31:01; [1]) | Kd (HLA-A*11:01; [1]) | other results
LLMHLVSLY | ≥ 52500 nM | 9.95 nM | 2.67 nM | – | 7.11 nM | –
KLSYGIATVR | – | – | – | – | – | Kd (HLA-A*33:01; [7]): 15300 nM; Kd (HLA-A*68:01; [7]): 89 nM; Kd (HLA-A*03:01; [7]): 879 nM; Kd (HLA-A*31:01; [7]): 278 nM; Kd (HLA-A*11:01; [7]): 1420 nM
FTTSLSLHK | – | – | – | – | – | Kd (HLA-A*33:01; [7]): 1130 nM; Kd (HLA-A*68:01; [7]): 271 nM; Kd (HLA-A*03:01; [7]): 1350 nM; Kd (HLA-A*31:01; [7]): 2860 nM; Kd (HLA-A*11:01; [7]): 181 nM
QCKDLCHMH | – | – | – | – | – | Kd (HLA-A*33:01; [8]): 12300 nM; Kd (HLA-A*68:01; [8]): 1520 nM; Kd (HLA-A*03:01; [8]): ≥ 71900 nM; Kd (HLA-A*31:01; [8]): 526 nM; Kd (HLA-A*11:01; [8]): ≥ 77900 nM
CTLPPLRYR | – | – | – | – | – | Kd (HLA-A*33:01; [3]): 12.1 nM; Kd (HLA-A*31:01; [3]): 2.9 nM
LLTDTIESAK | 2340 nM | 667 nM | 190 nM | 10100 nM | 84.7 nM | –
VFFTASLFLH | – | – | – | – | – | Kd (HLA-A*33:01; [9]): 164 nM; Kd (HLA-A*68:01; [9]): ≥ 22700 nM; Kd (HLA-A*03:01; [9]): 10400 nM; Kd (HLA-A*31:01; [9]): 318 nM; Kd (HLA-A*11:01; [9]): 10100 nM
LTDTIESAK | 3.04 nM | 25.7 nM | 1070 nM | 8.11 nM | 125 nM | –
SISNITTATR | – | – | – | – | – | Kd (HLA-A*33:01; [2]): 10.6 nM; Kd (HLA-A*68:01; [2]): 13.6 nM; Kd (HLA-A*31:01; [2]): 626 nM
KMLTFDVFR | 365 nM | 77.2 nM | 82.9 nM | 3.97 nM | 2.96 nM | –
KSQAKKPEVR | ≥ 37200 nM | ≥ 70200 nM | ≥ 22000 nM | 299 nM | 10800 nM | –
QMAGVEVRY | ≥ 20200 nM | 7430 nM | 49.6 nM | ≥ 31200 nM | 2270 nM | –
MLNIMNRRKR | – | – | – | – | – | Kd (HLA-A*31:01; [4]): ≥ 60800 nM
DTSECPNERR | – | – | – | – | – | Kd (HLA-A*68:01; [2]): 124 nM
YLSDSDNIK | ≥ 50700 nM | 1120 nM | 2600 nM | ≥ 77900 nM | 8570 nM | –
